Results from paper PMC3087504, “DNA Damage in Oocytes Induces a Switch of the Quality Control Factor TAp63α from Dimer to Tetramer”.
Residue numbers refer to the chain shown, from its start.

T1: MBP-TAp63α (Mus musculus, UniProt O88898 40-680)
T1 sequence: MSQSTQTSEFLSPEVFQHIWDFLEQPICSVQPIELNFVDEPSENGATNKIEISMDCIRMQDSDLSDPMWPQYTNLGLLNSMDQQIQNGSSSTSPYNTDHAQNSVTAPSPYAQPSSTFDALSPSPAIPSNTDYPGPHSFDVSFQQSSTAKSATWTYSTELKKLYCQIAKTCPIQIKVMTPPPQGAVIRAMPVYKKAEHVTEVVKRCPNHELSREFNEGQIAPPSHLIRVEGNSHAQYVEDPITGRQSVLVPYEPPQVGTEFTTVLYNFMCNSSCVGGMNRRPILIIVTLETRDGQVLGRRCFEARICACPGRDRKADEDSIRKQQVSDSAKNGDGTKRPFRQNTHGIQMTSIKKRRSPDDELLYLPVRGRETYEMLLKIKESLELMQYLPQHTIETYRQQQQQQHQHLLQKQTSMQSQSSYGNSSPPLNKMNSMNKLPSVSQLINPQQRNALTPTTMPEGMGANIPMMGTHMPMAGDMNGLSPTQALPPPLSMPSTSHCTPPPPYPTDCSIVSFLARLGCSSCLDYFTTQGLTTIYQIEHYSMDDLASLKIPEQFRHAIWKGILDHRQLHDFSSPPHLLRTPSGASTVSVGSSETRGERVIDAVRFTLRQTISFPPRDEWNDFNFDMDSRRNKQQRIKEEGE

T2: MBP-TAp63αR (Mus musculus, UniProt O88898 40-680, R318H)
T2 sequence: T1 sequence with R279H

B1: p21 promoter response element (dsDNA)
DNA 1: GGCAGGAACATGTCCCAACATGTTGAGCCG
DNA 2: CGGCTCAACATGTTGGGACATGTTCCTGCC
B2: random sequence (dsDNA)
DNA 1: CGAGTTGTAAGTCGAATTGATACCATAATGCACTACACG
DNA 2: CGTGTAGTGCATTATGGTATCAATTCGACTTACAACTCG
B3: SELEX-based p63 binding sequence (dsDNA)
DNA 1: CCTATTCTAGACATGTGAGGACATGTCGATACTTATTCC
DNA 2: GGAATAAGTATCGACATGTCCTCACATGTCTAGAATAGG

Experiments:
MBP-TAp63α [1] = target: T1, MBP-TAp63α; test: fluorescence anisotropy; two-site fit, monomer concentration; second-site KD negative, uninterpreted; 10 mM potassium phosphate pH 7.6, 200 mM NaCl, room temperature, 30 min; 15 nM p21 DNA (300 nM for controls), protein 0.1-15 µM monomer; conditions: protein: recombinant; tags: N-term MBP; C-term His6; chain copies: 2; label: 5'-fluorescein
MBP-TAp63αR = target: T2, MBP-TAp63αR; test: fluorescence anisotropy; 300 nM DNA; 10 mM potassium phosphate pH 7.6, 200 mM NaCl, room temperature, 30 min; 15 nM p21 DNA (300 nM for controls), protein 0.1-15 µM monomer; conditions: protein: recombinant; tags: N-term MBP; C-term His6; chain copies: 4; label: 5'-fluorescein
MBP-TAp63α [2] = target: T1, MBP-TAp63α; test: as above; conditions: protein: recombinant; tags: N-term MBP; C-term His6; chain copies: 2; label: 5'-fluorescein

Binder	Kd (MBP-TAp63α [1])	binding result (MBP-TAp63αR)	binding result (MBP-TAp63α [2])
B1	7.51 ± 1.32 µM		
B2		no binding	no binding
B3		no binding	
